Source: paper PMC5986008, “Intracellular free flavin and its associated enzymes participate in oxygen and iron metabolism in Amphibacillus xylanus lacking a respiratory chain” (FEBS Open Bio, 2018)

Legend:
[1] = target: T1, NAD(P)H oxidoreductase (Npo) (Amphibacillus xylanus, UniProt K0J097); test: NADPH oxidation kinetics (details not told); assay type: biochemical; details: only an upper bound printed; conditions of this determination not told
T1 construct: recombinant from E. coli DE3, pET101 TOPO, reverse primer keeps native stop (primers encode N-terminus MAKDF, C-terminus CENFK); 23 kDa; 1 mol FMN per subunit
T1 sequence (K0J097 1-199): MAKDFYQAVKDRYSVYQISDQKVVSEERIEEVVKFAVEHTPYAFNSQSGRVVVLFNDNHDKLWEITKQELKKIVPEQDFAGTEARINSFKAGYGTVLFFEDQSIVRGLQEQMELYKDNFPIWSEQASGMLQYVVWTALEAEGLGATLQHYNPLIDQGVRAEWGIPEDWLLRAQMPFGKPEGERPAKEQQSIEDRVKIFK

[2] = target: T1, NAD(P)H oxidoreductase (Npo); test: spectral analysis of FMN released from the protein by […] SDS; assay type: binding; details: bound flavin cofactor, 1 mol FMN per subunit
purified protein = substrate: Cc1cc2nc3c(=O)[nH]c(=O)nc-3n(C[C@H](O)[C@H](O)[C@H](O)COP(=O)(O)OP(=O)(O)OC[C@H]3O[C@@H](n4cnc5c(N)ncnc54)[C@H](O)[C@@H]3O)c2cc1C; test: purified protein; assay type: biochemical, Amphibacillus xylanus; details: 50 mM sodium phosphate pH 7.0, 0.5 mM EDTA, 25 °C, FAD 15-150 μM as free substrate

Molecule `NC(=O)C1=CN([C@@H]2O[C@H](COP(=O)(O)OP(=O)(O)OC[C@H]3O[C@@H](n4cnc5c(N)ncnc54)[C@H](OP(=O)(O)O)[C@@H]3O)[C@@H](O)[C@H]2O)C=CC1` [NADPH] has a Km [1] of less than 33 µM.

In the case of `Cc1cc2nc3c(=O)[nH]c(=O)nc-3n(C[C@H](O)[C@H](O)[C@H](O)COP(=O)(O)O)c2cc1C` [FMN], the “spectral analysis of FMN released from the protein by 0.1% SDS” value [2] is reported as “spectral analysis of free FMN, which was released from Npo protein”.

B1: NAD(P)H oxidoreductase (Npo) (Amphibacillus xylanus NBRC 15112) (protein)
chain: T1 sequence (K0J097 1-199)
notes: recombinant from E. coli DE3, pET101 TOPO, reverse primer keeps native stop (primers encode N-terminus MAKDF, C-terminus CENFK); 23 kDa; 1 mol FMN per subunit
For B1, the Km (purified protein; 150 μM NADPH) was 71 ± 10 µM, the kcat (purified protein; 150 μM NADPH) was 1 ± 0.1 s⁻¹ and the kcat/Km (purified protein; 150 μM NADPH) was 14000 ± 1000 M⁻¹ s⁻¹.

B2: NADH oxidase (Nox) (Amphibacillus xylanus NBRC 15112) (protein)
chain: MLDKDIKQQLEQYLALLENDIVIKVSVGDDKVSKDTLELVNEIADMSSMISVEETTLERTPSFSINRKGEPDSGVVFAGIPLGHEFTSLVLALLQVSGRAPKVEASVIDAIKKVEGKHDFVTYVSLTCQNCPDVVQALNLMSVVNPNITHTMVEGSAFKDEVDRLNILAVPSVYLNGEFMASGRMTIEDILGHLGSGIDASELNEKDPFDVLVIGGGPAGASSAIYAARKGIRVGIIADRFGGQVMDTLGIENFIGTKYTEGPKLISEIEQHVNEYNIDVMKGLRAHNIEKKDLFEVQLDNGAVLKSKTIILATGARWRDIGVPGEKEYKNKGVAYCTHCDAPLFEGKHVAVVGGGNSGIESALDLAGIVKHVTVFEFMSELKADAVLQERLRSLPNVDVILNAQTTEITGDETVKGISYIDRTTNEEKHVELQGAFIQIGLAPNTEWLGDTVERNQIGEIVIDKKGQTSVPGIFAAGDCTDTPYKQIIVSMGAGATAALGAFDYLLRN
B2 gave a Km (purified protein; 150 μM NADH) of 37 ± 3 µM, a kcat (purified protein; 150 μM NADH) of 91 ± 8 s⁻¹ and a kcat/Km (purified protein; 150 μM NADH) of 2.42e+06 ± 74000 M⁻¹ s⁻¹.
